These results are taken from patent US20070020257A1.

For the experiment, the target named is integrins on cell surface of mucosae. In words: cell-based or functional assay.

Consider YIGSRTYEAALKQYEADLKKTYEAALKQYEADL [YIGSR-DUP (di unit peptide with the cell attachment motif YIGSR at the N-terminal region)], for which the Titer against PAc (intranasal YIGSR-DUP given together with an excess of YIGSR peptide as inhibitor) (titer (maximum serum dilution)) was determined as 235 and the Titer against PAc (serum of BALB/c mice after intranasal administration of YIGSR-DUP) (titer (maximum serum dilution)) came to 1200.

With RGDTYEAALKQYEADLKKTYEAALKQYEADL [RGD-DUP (di unit peptide with the cell attachment motif RGD at the N-terminal region)], the Titer against PAc (intranasal RGD-DUP given together with an excess of RGDS peptide as inhibitor) (titer (maximum serum dilution)) was found to be 256 and the Titer against PAc (serum of BALB/c mice after intranasal administration of RGD-DUP) (titer (maximum serum dilution)) stood at 5070.
